Measured values taken from CN117321082A (APOCOR LTD, dated 2023).

How the values were obtained:
[1] = target: T1, 全长人KLRG1 (full-length human KLRG1 on stably transfected CHOK1 cells) (human, UniProt Q96E93 1-195); assay: FACS on CHOK1 cells expressing full-length human KLRG1, detected with anti-human IgG-Alexa 488
T1 construct: whole, on cells; the cell assays used full-length protein; also called hKLRG1; CHOK1-hKLRG1
T1 sequence (looked up): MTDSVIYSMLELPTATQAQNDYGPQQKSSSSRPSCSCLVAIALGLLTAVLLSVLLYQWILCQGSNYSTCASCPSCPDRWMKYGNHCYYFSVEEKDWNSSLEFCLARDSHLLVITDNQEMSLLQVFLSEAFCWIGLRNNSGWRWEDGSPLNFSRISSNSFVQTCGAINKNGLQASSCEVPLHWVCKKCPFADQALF

[2] = target: T1, 全长人KLRG1 (full-length human KLRG1 on …); assay: FACS competition on CHOK1-hKLRG1 cells; competitor 0.3 uM human E-cadherin-ECD-FC-biotin (Example 7)
[3] = target: T1, 全长人KLRG1 (full-length human KLRG1 on …); assay: FACS competition on CHOK1-hKLRG1 cells; competitor 0.3 uM human E-cadherin-ECD-FC-biotin, detected with streptavidin-Alexa 488

B1: PA015 (antibody, human IgG1, kappa, V domains shown)
VH: QVTLRESGPALVKPTQTLTLTCTVSGFSLSTFGMGVGWIRQPPGKALEWLAHIWWDDDKWYELALKSRLTISKDTSKNQVVLTITNMDPVDTATYYCARVIYYGSRSAYYSMDYWGQGTTVTVSS
VL: DVVMTQTPLSLSVTPGQPASISCKSSQSIVHSNAHTYLEWYLQKPGQSPQLLIYKVSNRFSGVPDRFSGSGSGTDFTLKISRVEAEDVGVYYCFQGSHVPVTFGQGTKLEIKR
notes: also called PA015抗体; 抗KLRG1抗体
**Q.** Which EC50 [1] does the source give for B1 here?
**A.** 1.33 nM

**Q.** What about the IC50 [2] of the same binder?
**A.** 5.3 nM

**Q.** What about the IC50 [3] of the same binder?
**A.** 8.05 nM
